Laboratory results taken from PMC8592465.

How the values were obtained:
[1] = target: GfcC (expressed from pMCSG7 without signal sequence, His6-tag removed) (Escherichia coli O127:H6 str. E2348/69) (UniProt P75883); test: ITC; 100 μM GfcB injected into 10 μM GfcC, 25°C, 20 mM Tris-HCl pH 7.5, 150 mM NaCl; 1:1 model
[2] = target: GfcD-biotin (from pBH31, His-tag removed, biotinylated) (Escherichia coli O127:H6 str. E2348/69) (UniProt P75882); test: BLI; biotinylated GfcD on streptavidin sensor, GfcB, GfcC or GfcBC in solution 3.75-60 μM, 25°C, 20 mM Tris-HCl pH 7.5, 150 mM NaCl, 0.1 mg/mL BSA, 0.02% DDM; 1:1 model
[3] = target: GfcC-biotin (from pMCSG7, His6-tag removed, biotinylated) (Escherichia coli O127:H6 str. E2348/69) (UniProt P75883); test: BLI; biotinylated GfcC on streptavidin sensor, GfcB (C-terminal His6, pETBlue2) in solution 0.1-1.6 μM, 25°C, 20 mM Tris-HCl pH 7.5, 150 mM NaCl, 0.1 mg/mL BSA; fit 1:1 and 1:1 with conformational change
[4] = target: GfcD (expressed from pBH31, residues 22-698, His-tag removed by TEV) (Escherichia coli O127:H6 str. E2348/69) (UniProt P75882); test: ITC; 160 μM GfcB-GfcC complex injected into 20 μM GfcD, 25°C, 20 mM Tris-HCl pH 7.5, 150 mM NaCl, 0.02% DDM; 1:1 model, n held at 1.0
[5] = target: GfcB-biotin (from pMCSG7, His6-tag removed, biotinylated) (Escherichia coli O127:H6 str. E2348/69) (UniProt P75884); test: BLI; biotinylated GfcB on streptavidin sensor, GfcC in solution 0.2-1.6 μM, 25°C, 20 mM Tris-HCl pH 7.5, 150 mM NaCl, 0.1 mg/mL BSA; fit 1:1 and 1:1 with conformational change
[6] = target: His6-GfcB (from pMCSG7, tag kept) (Escherichia coli O127:H6 str. E2348/69) (UniProt P75884); test: cross-linking; purified proteins mixed at 5 μM in 20 mM Hepes, 150 mM NaCl, 0.06% DDM pH 7.5, cross-linked with DSP 1 hour at room temperature, SDS-PAGE, blots with anti-polyhistidine and anti-GfcC

Substance: GfcB (expressed from pMCSG7 without signal sequence, His6-tag removed) (from UniProt P75884 16-214) (natural protein)
- Kd [1]: 99.8 nM
- dH [1]: -6.92 kcal/mol
- stoichiometry N [1]: 1.01
- Kd [2]: 14200 nM
- koff [2]: 0.00926 s⁻¹
- kon [2]: 652 M⁻¹ s⁻¹

Substance: GfcB with C-terminal His6-tag expressed from pETBlue2(gfcB) (from UniProt P75884 16-214) (natural protein)
- KD (1:1 with conformational change, binding step) [3]: 407 nM
- Kd [3]: 175 nM
- ka1 (1:1 with conformational change, binding step) [3]: 80400 M⁻¹ s⁻¹
- kd1 (1:1 with conformational change, binding step) [3]: 0.0328 s⁻¹
- kd2 (1:1 with conformational change, conformational step) [3]: 0.0107 s⁻¹
- koff [3]: 0.0126 s⁻¹
- kon [3]: 71700 M⁻¹ s⁻¹

Substance: GfcB-GfcC heterodimer (from UniProt P75884 16-214; P75883 23-248) (complex)
- Kd [4]: 28400 nM
- dH [4]: -7.24 kcal/mol
- Kd [2]: 9160 nM
- koff [2]: 0.00716 s⁻¹
- kon [2]: 781 M⁻¹ s⁻¹

Substance: GfcC (expressed from pMCSG7 without signal sequence, His6-tag removed) (from UniProt P75883 23-248) (natural protein)
- Kd [2]: 257000 nM
- koff [2]: 0.0286 s⁻¹
- kon [2]: 111 M⁻¹ s⁻¹
- KD (1:1 with conformational change, binding step) [5]: 1010 nM
- Kd [5]: 374 nM
- ka1 (1:1 with conformational change, binding step) [5]: 59900 M⁻¹ s⁻¹
- kd1 (1:1 with conformational change, binding step) [5]: 0.0603 s⁻¹
- kd2 (1:1 with conformational change, conformational step) [5]: 0.015 s⁻¹
- koff [5]: 0.0196 s⁻¹
- kon [5]: 52300 M⁻¹ s⁻¹

Substance: His6-GfcB (from pMCSG7, tag kept) (from UniProt P75884 16-214) (natural protein)
- stoichiometry N [6]: 2
